Columns and labels:
Assay in all cases: Kinase Profiling Assay
Assay type in all cases: biochemical
Settings in all cases: 100 μM peptide
[1] = target: T1, Rsk2(h) (Homo sapiens, UniProt P51812)
T1 construct: purchased Millipore (IC50 Profiler Express service)
How it was run: (§1)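 In duplicate, the activities of 266 available human kinases were determined with MK2 inhibitory peptides present, as a measure of peptide selectivity.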

[2] = target: T2, BrSK1(h) (Homo sapiens, UniProt Q8TDC3)
T2 sequence (Q8TDC3 1-778): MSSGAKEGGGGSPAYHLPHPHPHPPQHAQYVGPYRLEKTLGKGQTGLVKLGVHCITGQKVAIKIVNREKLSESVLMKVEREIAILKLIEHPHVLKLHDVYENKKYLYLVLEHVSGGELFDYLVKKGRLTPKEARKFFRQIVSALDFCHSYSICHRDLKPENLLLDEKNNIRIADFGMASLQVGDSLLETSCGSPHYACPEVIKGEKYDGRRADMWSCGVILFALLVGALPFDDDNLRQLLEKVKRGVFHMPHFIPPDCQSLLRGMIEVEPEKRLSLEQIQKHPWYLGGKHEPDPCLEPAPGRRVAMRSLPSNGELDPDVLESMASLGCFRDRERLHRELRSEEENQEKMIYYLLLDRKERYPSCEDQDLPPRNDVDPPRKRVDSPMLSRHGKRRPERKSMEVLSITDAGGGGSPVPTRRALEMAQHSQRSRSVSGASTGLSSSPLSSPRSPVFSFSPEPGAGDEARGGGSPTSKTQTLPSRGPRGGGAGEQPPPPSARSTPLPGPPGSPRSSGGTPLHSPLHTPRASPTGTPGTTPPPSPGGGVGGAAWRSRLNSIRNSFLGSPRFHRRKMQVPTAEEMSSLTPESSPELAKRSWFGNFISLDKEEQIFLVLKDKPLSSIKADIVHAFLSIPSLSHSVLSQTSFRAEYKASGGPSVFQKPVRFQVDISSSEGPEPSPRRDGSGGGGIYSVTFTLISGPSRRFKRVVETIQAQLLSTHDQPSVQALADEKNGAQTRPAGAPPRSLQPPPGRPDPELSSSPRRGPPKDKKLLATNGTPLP
How it was run: as §1

[3] = target: Met(D1246N)(h) (Homo sapiens, UniProt P08581, D1228N)
How it was run: as §1

[4] = target: T3, PDK1(h) (Homo sapiens, UniProt O15530)
T3 sequence (O15530 1-556): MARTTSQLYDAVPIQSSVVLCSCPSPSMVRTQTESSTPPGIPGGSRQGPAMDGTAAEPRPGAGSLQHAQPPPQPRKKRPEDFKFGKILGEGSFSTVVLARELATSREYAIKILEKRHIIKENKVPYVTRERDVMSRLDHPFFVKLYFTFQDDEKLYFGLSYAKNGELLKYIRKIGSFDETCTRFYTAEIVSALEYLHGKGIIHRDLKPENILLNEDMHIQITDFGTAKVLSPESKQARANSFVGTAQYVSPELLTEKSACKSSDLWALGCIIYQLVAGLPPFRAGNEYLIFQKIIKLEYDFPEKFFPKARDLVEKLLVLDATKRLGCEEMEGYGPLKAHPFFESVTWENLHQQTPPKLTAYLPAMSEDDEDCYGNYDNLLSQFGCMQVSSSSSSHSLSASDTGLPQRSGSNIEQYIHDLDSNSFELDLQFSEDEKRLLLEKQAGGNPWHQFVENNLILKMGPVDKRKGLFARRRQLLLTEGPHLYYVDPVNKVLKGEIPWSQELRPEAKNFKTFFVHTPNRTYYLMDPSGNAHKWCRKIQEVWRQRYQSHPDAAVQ
How it was run: as §1

[5] = target: T4, SGK3(h) (Homo sapiens, UniProt Q96BR1)
T4 sequence (Q96BR1 1-496): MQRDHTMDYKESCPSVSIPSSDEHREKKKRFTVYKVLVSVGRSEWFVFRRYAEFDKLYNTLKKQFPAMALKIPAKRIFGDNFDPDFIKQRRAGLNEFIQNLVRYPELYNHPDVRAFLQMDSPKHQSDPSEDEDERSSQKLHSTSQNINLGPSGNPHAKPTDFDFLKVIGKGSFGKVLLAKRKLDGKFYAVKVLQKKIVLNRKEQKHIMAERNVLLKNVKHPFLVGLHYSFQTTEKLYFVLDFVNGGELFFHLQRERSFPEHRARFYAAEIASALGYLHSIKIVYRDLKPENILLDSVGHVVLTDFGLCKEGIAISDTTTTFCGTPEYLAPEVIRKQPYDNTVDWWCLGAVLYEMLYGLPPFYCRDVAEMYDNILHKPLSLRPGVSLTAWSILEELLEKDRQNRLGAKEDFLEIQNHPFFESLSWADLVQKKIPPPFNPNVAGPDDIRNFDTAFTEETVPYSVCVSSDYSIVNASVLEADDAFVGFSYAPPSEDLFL
How it was run: as §1

[6] = target: PKCα(h) (Homo sapiens, UniProt P17252)
How it was run: as §1

T1 sequence (P51812 whole entry): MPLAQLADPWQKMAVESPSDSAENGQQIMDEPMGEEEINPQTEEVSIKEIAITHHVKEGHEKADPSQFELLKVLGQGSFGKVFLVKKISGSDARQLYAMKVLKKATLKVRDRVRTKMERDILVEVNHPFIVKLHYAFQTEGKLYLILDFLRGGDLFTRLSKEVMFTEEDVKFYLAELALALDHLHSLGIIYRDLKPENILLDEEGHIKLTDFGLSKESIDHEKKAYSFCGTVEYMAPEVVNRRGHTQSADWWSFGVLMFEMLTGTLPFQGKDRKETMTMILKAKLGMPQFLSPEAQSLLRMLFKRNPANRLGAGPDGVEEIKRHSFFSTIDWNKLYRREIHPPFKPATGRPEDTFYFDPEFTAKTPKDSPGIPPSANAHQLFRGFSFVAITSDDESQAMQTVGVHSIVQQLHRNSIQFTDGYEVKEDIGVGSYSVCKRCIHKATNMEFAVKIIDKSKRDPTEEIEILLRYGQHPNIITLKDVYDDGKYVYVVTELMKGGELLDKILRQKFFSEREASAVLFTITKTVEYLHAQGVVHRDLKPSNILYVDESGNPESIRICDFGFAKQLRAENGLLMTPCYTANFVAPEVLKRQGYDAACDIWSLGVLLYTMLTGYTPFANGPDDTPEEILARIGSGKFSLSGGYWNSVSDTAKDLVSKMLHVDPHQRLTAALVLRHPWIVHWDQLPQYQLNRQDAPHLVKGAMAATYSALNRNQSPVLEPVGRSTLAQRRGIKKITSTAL

Sequence	Rsk2(h) % activity [1] [%]	BrSK1(h) % activity [2] [%]	Met(D1246N)(h) % activity [3] [%]	PDK1(h) % activity [4] [%]	SGK3(h) % activity [5] [%]	PKCα(h) % activity [6] [%]
FAKLAARLYRKALARQLGVAA [MMI-0300]	51	67	82	135	10	89
HRRIKAWLKKIKALARQLGVAA (Mammalian) [MMI-0500]	14	72	90	178	−3	3
KAFAKLAARLYRKALARQLGVAA [MMI-0400]	38	76	31	159	8	86
YARAAARQARAKALNRQLGVA (Mammalian) [MMI-0200]	101	93	149	143	58	100
